T1: FcγRIIb extracellular domain with C-terminal His tag (human, UniProt P31994 43-217)
T1 construct: extracellular domain; also called FcgRIIb; 2b; not shown: His tag at the C terminus
T1 sequence (looked up): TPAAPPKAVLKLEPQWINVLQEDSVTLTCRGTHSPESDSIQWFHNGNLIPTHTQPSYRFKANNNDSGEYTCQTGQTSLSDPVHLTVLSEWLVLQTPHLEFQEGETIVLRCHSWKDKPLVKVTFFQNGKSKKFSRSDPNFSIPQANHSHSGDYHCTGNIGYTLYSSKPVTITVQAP

B1: GpH7-A5/GpH7-B3 variant K326_19Q/GpL16-k0 (antibody, human IgG1, kappa)
heavy 1: not shown
heavy 2: not shown
light: DIVMTQSPLSLPVTPGEPASISCQASESLVHSNRNTYLHWYLQKPGQSPQLLIYKVSNRFSGVPDRFSGSGSGTDFTLKISRVEAEDVGVYYCSQNTHVPPTFGQGTKVEIERTVAAPSVFIFPPSDEQLKSGTASVVCLLNNFYPREAKVQWKVDNALQSGNSQESVTEQDSKDSTYSLSSTLTLSKADYEKHKVYACEVTHQGLSSPVTKSFNRGEC
notes: Heterodimerized IgG1 antibody; alteration in the GpH7-B3 chain only; also called He Ab
B2: GpH7-A5/GpH7-B3 variant N325_05P/GpL16-k0 (antibody, human IgG1, kappa)
heavy 1: not shown
heavy 2: not shown
light: DIVMTQSPLSLPVTPGEPASISCQASESLVHSNRNTYLHWYLQKPGQSPQLLIYKVSNRFSGVPDRFSGSGSGTDFTLKISRVEAEDVGVYYCSQNTHVPPTFGQGTKVEIERTVAAPSVFIFPPSDEQLKSGTASVVCLLNNFYPREAKVQWKVDNALQSGNSQESVTEQDSKDSTYSLSSTLTLSKADYEKHKVYACEVTHQGLSSPVTKSFNRGEC
notes: as for B1
B3: GpH7-A5/GpH7-B3 variant N325_04F/GpL16-k0 (antibody, human IgG1, kappa)
heavy 1: not shown
heavy 2: not shown
light: DIVMTQSPLSLPVTPGEPASISCQASESLVHSNRNTYLHWYLQKPGQSPQLLIYKVSNRFSGVPDRFSGSGSGTDFTLKISRVEAEDVGVYYCSQNTHVPPTFGQGTKVEIERTVAAPSVFIFPPSDEQLKSGTASVVCLLNNFYPREAKVQWKVDNALQSGNSQESVTEQDSKDSTYSLSSTLTLSKADYEKHKVYACEVTHQGLSSPVTKSFNRGEC
notes: as for B1
B4: GpH7-A5/GpH7-B3 variant L328_04F/GpL16-k0 (antibody, human IgG1, kappa)
heavy 1: not shown
heavy 2: not shown
light: DIVMTQSPLSLPVTPGEPASISCQASESLVHSNRNTYLHWYLQKPGQSPQLLIYKVSNRFSGVPDRFSGSGSGTDFTLKISRVEAEDVGVYYCSQNTHVPPTFGQGTKVEIERTVAAPSVFIFPPSDEQLKSGTASVVCLLNNFYPREAKVQWKVDNALQSGNSQESVTEQDSKDSTYSLSSTLTLSKADYEKHKVYACEVTHQGLSSPVTKSFNRGEC
notes: as for B1
B5: GpH7-A5/GpH7-B3 variant N325_08L/GpL16-k0 (antibody, human IgG1, kappa)
heavy 1: not shown
heavy 2: not shown
light: DIVMTQSPLSLPVTPGEPASISCQASESLVHSNRNTYLHWYLQKPGQSPQLLIYKVSNRFSGVPDRFSGSGSGTDFTLKISRVEAEDVGVYYCSQNTHVPPTFGQGTKVEIERTVAAPSVFIFPPSDEQLKSGTASVVCLLNNFYPREAKVQWKVDNALQSGNSQESVTEQDSKDSTYSLSSTLTLSKADYEKHKVYACEVTHQGLSSPVTKSFNRGEC
notes: as for B1
B6: GpH7-A5/GpH7-B3 variant N325_06M/GpL16-k0 (antibody, human IgG1, kappa)
heavy 1: not shown
heavy 2: not shown
light: DIVMTQSPLSLPVTPGEPASISCQASESLVHSNRNTYLHWYLQKPGQSPQLLIYKVSNRFSGVPDRFSGSGSGTDFTLKISRVEAEDVGVYYCSQNTHVPPTFGQGTKVEIERTVAAPSVFIFPPSDEQLKSGTASVVCLLNNFYPREAKVQWKVDNALQSGNSQESVTEQDSKDSTYSLSSTLTLSKADYEKHKVYACEVTHQGLSSPVTKSFNRGEC
notes: as for B1
B7: GpH7-A5/GpH7-B3 variant N325_03V/GpL16-k0 (antibody, human IgG1, kappa)
heavy 1: not shown
heavy 2: not shown
light: DIVMTQSPLSLPVTPGEPASISCQASESLVHSNRNTYLHWYLQKPGQSPQLLIYKVSNRFSGVPDRFSGSGSGTDFTLKISRVEAEDVGVYYCSQNTHVPPTFGQGTKVEIERTVAAPSVFIFPPSDEQLKSGTASVVCLLNNFYPREAKVQWKVDNALQSGNSQESVTEQDSKDSTYSLSSTLTLSKADYEKHKVYACEVTHQGLSSPVTKSFNRGEC
notes: as for B1
B8: GpH7-A5/GpH7-B3 variant N325_02A/GpL16-k0 (antibody, human IgG1, kappa)
heavy 1: not shown
heavy 2: not shown
light: DIVMTQSPLSLPVTPGEPASISCQASESLVHSNRNTYLHWYLQKPGQSPQLLIYKVSNRFSGVPDRFSGSGSGTDFTLKISRVEAEDVGVYYCSQNTHVPPTFGQGTKVEIERTVAAPSVFIFPPSDEQLKSGTASVVCLLNNFYPREAKVQWKVDNALQSGNSQESVTEQDSKDSTYSLSSTLTLSKADYEKHKVYACEVTHQGLSSPVTKSFNRGEC
notes: as for B1
B9: GpH7-A5/GpH7-B3 variant L328_03V/GpL16-k0 (antibody, human IgG1, kappa)
heavy 1: not shown
heavy 2: not shown
light: DIVMTQSPLSLPVTPGEPASISCQASESLVHSNRNTYLHWYLQKPGQSPQLLIYKVSNRFSGVPDRFSGSGSGTDFTLKISRVEAEDVGVYYCSQNTHVPPTFGQGTKVEIERTVAAPSVFIFPPSDEQLKSGTASVVCLLNNFYPREAKVQWKVDNALQSGNSQESVTEQDSKDSTYSLSSTLTLSKADYEKHKVYACEVTHQGLSSPVTKSFNRGEC
notes: as for B1
B10: GpH7-A5/GpH7-B3 variant K326_20W/GpL16-k0 (antibody, human IgG1, kappa)
heavy 1: not shown
heavy 2: not shown
light: DIVMTQSPLSLPVTPGEPASISCQASESLVHSNRNTYLHWYLQKPGQSPQLLIYKVSNRFSGVPDRFSGSGSGTDFTLKISRVEAEDVGVYYCSQNTHVPPTFGQGTKVEIERTVAAPSVFIFPPSDEQLKSGTASVVCLLNNFYPREAKVQWKVDNALQSGNSQESVTEQDSKDSTYSLSSTLTLSKADYEKHKVYACEVTHQGLSSPVTKSFNRGEC
notes: as for B1
B11: GpH7-A5/GpH7-B3 variant N325_09D/GpL16-k0 (antibody, human IgG1, kappa)
heavy 1: not shown
heavy 2: not shown
light: DIVMTQSPLSLPVTPGEPASISCQASESLVHSNRNTYLHWYLQKPGQSPQLLIYKVSNRFSGVPDRFSGSGSGTDFTLKISRVEAEDVGVYYCSQNTHVPPTFGQGTKVEIERTVAAPSVFIFPPSDEQLKSGTASVVCLLNNFYPREAKVQWKVDNALQSGNSQESVTEQDSKDSTYSLSSTLTLSKADYEKHKVYACEVTHQGLSSPVTKSFNRGEC
notes: as for B1
B12: GpH7-A5/GpH7-B3 variant N325_10E/GpL16-k0 (antibody, human IgG1, kappa)
heavy 1: not shown
heavy 2: not shown
light: DIVMTQSPLSLPVTPGEPASISCQASESLVHSNRNTYLHWYLQKPGQSPQLLIYKVSNRFSGVPDRFSGSGSGTDFTLKISRVEAEDVGVYYCSQNTHVPPTFGQGTKVEIERTVAAPSVFIFPPSDEQLKSGTASVVCLLNNFYPREAKVQWKVDNALQSGNSQESVTEQDSKDSTYSLSSTLTLSKADYEKHKVYACEVTHQGLSSPVTKSFNRGEC
notes: as for B1
B13: GpH7-A5/GpH7-B3 variant L328_05P/GpL16-k0 (antibody, human IgG1, kappa)
heavy 1: not shown
heavy 2: not shown
light: DIVMTQSPLSLPVTPGEPASISCQASESLVHSNRNTYLHWYLQKPGQSPQLLIYKVSNRFSGVPDRFSGSGSGTDFTLKISRVEAEDVGVYYCSQNTHVPPTFGQGTKVEIERTVAAPSVFIFPPSDEQLKSGTASVVCLLNNFYPREAKVQWKVDNALQSGNSQESVTEQDSKDSTYSLSSTLTLSKADYEKHKVYACEVTHQGLSSPVTKSFNRGEC
notes: as for B1
B14: GpH7-A5/GpH7-B3 variant N325_07I/GpL16-k0 (antibody, human IgG1, kappa)
heavy 1: not shown
heavy 2: not shown
light: DIVMTQSPLSLPVTPGEPASISCQASESLVHSNRNTYLHWYLQKPGQSPQLLIYKVSNRFSGVPDRFSGSGSGTDFTLKISRVEAEDVGVYYCSQNTHVPPTFGQGTKVEIERTVAAPSVFIFPPSDEQLKSGTASVVCLLNNFYPREAKVQWKVDNALQSGNSQESVTEQDSKDSTYSLSSTLTLSKADYEKHKVYACEVTHQGLSSPVTKSFNRGEC
notes: as for B1
B15: GpH7-A5/GpH7-B3 variant N325_11K/GpL16-k0 (antibody, human IgG1, kappa)
heavy 1: not shown
heavy 2: not shown
light: DIVMTQSPLSLPVTPGEPASISCQASESLVHSNRNTYLHWYLQKPGQSPQLLIYKVSNRFSGVPDRFSGSGSGTDFTLKISRVEAEDVGVYYCSQNTHVPPTFGQGTKVEIERTVAAPSVFIFPPSDEQLKSGTASVVCLLNNFYPREAKVQWKVDNALQSGNSQESVTEQDSKDSTYSLSSTLTLSKADYEKHKVYACEVTHQGLSSPVTKSFNRGEC
notes: as for B1
B16: GpH7-A5/GpH7-B3 variant L328_02A/GpL16-k0 (antibody, human IgG1, kappa)
heavy 1: not shown
heavy 2: not shown
light: DIVMTQSPLSLPVTPGEPASISCQASESLVHSNRNTYLHWYLQKPGQSPQLLIYKVSNRFSGVPDRFSGSGSGTDFTLKISRVEAEDVGVYYCSQNTHVPPTFGQGTKVEIERTVAAPSVFIFPPSDEQLKSGTASVVCLLNNFYPREAKVQWKVDNALQSGNSQESVTEQDSKDSTYSLSSTLTLSKADYEKHKVYACEVTHQGLSSPVTKSFNRGEC
notes: as for B1
B17: GpH7-A5/GpH7-B3 variant L328_01G/GpL16-k0 (antibody, human IgG1, kappa)
heavy 1: not shown
heavy 2: not shown
light: DIVMTQSPLSLPVTPGEPASISCQASESLVHSNRNTYLHWYLQKPGQSPQLLIYKVSNRFSGVPDRFSGSGSGTDFTLKISRVEAEDVGVYYCSQNTHVPPTFGQGTKVEIERTVAAPSVFIFPPSDEQLKSGTASVVCLLNNFYPREAKVQWKVDNALQSGNSQESVTEQDSKDSTYSLSSTLTLSKADYEKHKVYACEVTHQGLSSPVTKSFNRGEC
notes: as for B1

Tests used:
[1] = biological target: T2, FcγRIIIa extracellular domain with C-terminal His tag (human, UniProt P08637 17-208); test: SPR (Biacore); He/Con_3a divided by He/Con_2b (FcγRIIb)
T2 construct: extracellular domain; also called FcgRIIIa; 3a; not shown: His tag at the C terminus
T2 sequence (P08637 17-208): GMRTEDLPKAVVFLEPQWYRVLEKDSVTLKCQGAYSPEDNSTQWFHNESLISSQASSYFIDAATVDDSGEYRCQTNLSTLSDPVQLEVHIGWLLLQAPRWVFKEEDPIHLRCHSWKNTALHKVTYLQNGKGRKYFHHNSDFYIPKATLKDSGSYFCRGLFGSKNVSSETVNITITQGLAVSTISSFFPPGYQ

[2] = biological target: T1, FcγRIIb extracellular domain with …; test: SPR (Biacore), FcγR as analyte over captured antibody; GpH7-A5/GpH7-B3/GpL16-k0 = 100
[3] = biological target: T2, FcγRIIIa extracellular domain with …; test: as above

Row | Binder | He_3a/2b (IIIa/IIb) [1] [ratio] | He/Con_2b [2] | He/Con_3a [3]
1 | B1 | 0.76 | 139 % of control | 106 % of control
2 | B2 | 0.39 | 26 % of control | 10.2 % of control
3 | B3 | 0.14 | 143 % of control | 20.7 % of control
4 | B4 | 0.36 | 219 % of control | 79.3 % of control
5 | B5 | 0.17 | 197 % of control | 33.3 % of control
6 | B6 | 0.14 | 217 % of control | 31.4 % of control
7 | B7 | 0.27 | 111 % of control | 30.3 % of control
8 | B8 | 0.47 | 64.4 % of control | 30.5 % of control
9 | B9 | 0.63 | 126 % of control | 78.7 % of control
10 | B10 | 0.57 | 148 % of control | 84.8 % of control
11 | B11 | 0.39 | 124 % of control | 48 % of control
12 | B12 | 0.4 | 95.9 % of control | 38.2 % of control
13 | B13 | 0.62 | 65.1 % of control | 40.5 % of control
14 | B14 | 0.17 | 171 % of control | 28.7 % of control
15 | B15 | 0.5 | 10.4 % of control | 5.2 % of control
16 | B16 | 0.55 | 144 % of control | 79.1 % of control
17 | B17 | 0.56 | 80.2 % of control | 44.9 % of control

Reference: patent US20150344570A1 (published 2015)
